Laboratory results: patent publication US20050158302

Biological target: GST-NFκBp65 C418 (GST-trans-activation domain only of NFκBp65) [GST: P08515]
Sequence (P08515 whole entry, looked up, the tested form may be a part): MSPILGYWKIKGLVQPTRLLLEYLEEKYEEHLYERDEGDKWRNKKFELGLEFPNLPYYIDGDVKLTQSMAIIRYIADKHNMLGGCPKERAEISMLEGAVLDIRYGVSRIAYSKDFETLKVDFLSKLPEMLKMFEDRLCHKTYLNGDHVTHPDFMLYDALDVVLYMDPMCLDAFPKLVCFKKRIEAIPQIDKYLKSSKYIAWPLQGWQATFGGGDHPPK

B1: Cdk8 (53 kD cytosolic protein kinase of Molt-4 extracts) (protein)
chain: MDYDFKVKLSSERERVEDLFEYEGCKVGRGTYGHVYKAKRKDGKDDKDYALKQIEGTGISMSACREIALLRELKHPNVISLQKVFLSHADRKVWLLFDYAEHDLWHIIKFHRASKANKKPVQLPRGMVKSLLYQILDGIHYLHANWVLHRDLKPANILVMGEGPERGRVKIADMGFARLFNSPLKPLADLDPVVVTFWYRAPELLLGARHYTKAIDIWAIGCIFAELLTSEPIFHCRQEDIKTSNPYHHDQLDRIFNVMGFPADKDWEDIKKMPEHSTLMKDFRRNTYTNCSLIKYMEKHKVKPDSKAFHLLQKLLTMDPIKRITSEQAMQDPYFLEDPLPTSDVFAGCQIPYPKREFLTEEEPDDKGDKKNQQQQQGNNHTNGTGHPGNQDSSHTQGPPLKKVRVVPPTTTSGGLIMTSDYQRSNPHAAYPNPGPSTSQPQSSMGYSATSQQPPQYSHQTHRY
CTD phosphorylation in in vitro kinase reaction (GST-CTD substrate): kinase activity was only mildly detected in GST-NFκBp65 C418/cytosolic protein complexes
